Source: paper PMC9138545, “Incorporation of Oxidized Phenylalanine Derivatives into Insulin Signaling Relevant Proteins May Link Oxidative Stress to Signaling Conditions Underlying Chronic Insulin Resistance” (Biomedicines, 2022)

Assays:
[1] = target: C-terminal SH2 domain of PI3K regulatory subunit 1 (UniProt P27986); assay: FP
[2] = target: N-terminal SH2 domain of PI3K regulatory subunit 1 (UniProt P27986); assay: FP
Chain of N-terminal SH2 domain of PI3K regulatory subunit 1 (P27986 321-433): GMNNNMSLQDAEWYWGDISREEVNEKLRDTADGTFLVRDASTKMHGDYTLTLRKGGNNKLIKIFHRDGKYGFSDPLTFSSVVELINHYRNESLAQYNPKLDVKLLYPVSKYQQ

Chain of C-terminal SH2 domain of PI3K regulatory subunit 1 (P27986 614-724): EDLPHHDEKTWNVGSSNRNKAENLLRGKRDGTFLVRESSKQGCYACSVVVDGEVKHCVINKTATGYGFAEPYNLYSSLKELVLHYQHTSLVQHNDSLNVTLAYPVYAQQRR

Row | Kd [1] | Kd [2] | Substance
1 | 6.5 µM | 53.2 µM | phospho-meta-Tyr IRS-1 peptide GRKGSGD(pY)MPMSPKV
2 | > 40 µM | > 150 µM | phospho-ortho-Tyr IRS-1 peptide GRKGSGD(pY)MPMSPKV
